The numbers were not newly measured in patent US12485093B2, “Composition for use as an antiviral in the form of nasal drops and in nebulisers” (DERMOPARTNERS, S.L., priority 2021, dated 2025), which cites them from elsewhere.

Data set [1] deals with viral entry into host cells. Particulars: by interacting with viral and/or cell surface receptors.
The subject of data set [2] is SARS-CoV-2. To be noted: adenocarcinoma human alveolar basal epithelial cells (A549), 1 mg/ml.
The test system of data set [3] is SARS-CoV-2. To be noted: African green monkey kidney epithelial cells, 1 mg/ml.

Where two headings read alike, the source gives them in different places.

B1: lactoferrin (protein, UniProt P02788 20-710, looked up)
Lactotransferrin: GRRRSVQWCAVSQPEATKCFQWQRNMRKVRGPPVSCIKRDSPIQCIQAIAENRADAVTLDGGFIYEAGLAPYKLRPVAAEVYGTERQPRTHYYAVAVVKKGGSFQLNELQGLKSCHTGLRRTAGWNVPIGTLRPFLNWTGPPEPIEAAVARFFSASCVPGADKGQFPNLCRLCAGTGENKCAFSSQEPYFSYSGAFKCLRDGAGDVAFIRESTVFEDLSDEAERDEYELLCPDNTRKPVDKFKDCHLARVPSHAVVARSVNGKEDAIWNLLRQAQEKFGKDKSPKFQLFGSPSGQKDLLFKDSAIGFSRVPPRIDSGLYLGSGYFTAIQNLRKSEEEVAARRARVVWCAVGEQELRKCNQWSGLSEGSVTCSSASTTEDCIALVLKGEADAMSLDGGYVYTAGKCGLVPVLAENYKSQQSSDPDPNCVDRPVEGYLAVAVVRRSDTSLTWNSVKGKKSCHTAVDRTAGWNIPMGLLFNQTGSCKFDEYFSQSCAPGSDPRSNLCALCIGDEQGENKCVPNSNERYYGYTGAFRCLAENAGDVAFVKDVTVLQNTDGNNNEAWAKDLKLADFALLCLDGKRKPVTEARSCHLAMAPNHAVVSRMDKVERLKQVLLHQQAKFGRNGSDCPDKFCLFQSETKNLLFNDNTECLARLHGKTTYEKYLGPQYVAGITNLKKCSTSPLLEACEFLRK
notes: naturally occurring, non-toxic glycoprotein, multifunctional protein of the immune system
In general, IC50 refers to the point on the concentration scale where inhibition reaches its midpoint. B1: the “block of viral entry into host cells” value in data set [1] is “managed to block viral entry into host cells”. In addition, the “effect on efficacy of remdesivir and hydroxychloroquine” value in the data set with SARS-CoV-2 infection was “potentiated the efficacy of both remdesivir and hydroxychloroquine”. In addition, the half-maximal inhibitory concentration (IC50) with SARS-CoV-2 infection (read-out: IC50 of inhibition of SARS-CoV-2 infection) is 308 nM. The “inhibition of SARS-CoV-2” value with SARS-CoV-2 [2] and in the data set on SARS-CoV-2 [3] was “capable of inhibiting SARS-CoV-2” in each case.
